Test results reported in patent US6500929B1.

Legend:
[1] = target: C1 (a first component of complement) of human serum (human) (UniProt P09871)
[2] = target: C1 (a first component of complement) of human serum (human) (UniProt P09871); remark: listed apart in the source

complement-mediated lysis of CHO cells (antibody against CHO cells, then 40% human serum) [1]: 20%
complement-mediated lysis of swine vascular endothelial cells (SEC) by 20% and 40% human serum [2]: 20%
Substance: FLAG-C1-INH-GPI (C1-INH-GPI with a FLAG epitope tag added to the C terminal of the signal peptide)
